Tests used:
GST-NUP153C (human) = GST-NUP153C (human) (UniProt P49790); test: pull-down; 0.47 µM GST-NUP153C pre-bound to glutathione-sepharose beads, 0.8 µM his-tagged IN, PD buffer (150 mM NaCl, 25 mM Tris-HCl pH 7.4, 5 mM MgCl2, 5 mM DTT, 0.1% NP-40), BSA 5 µg, 2 h 4°C; Coomassie and anti-his blot
[1] = molecular target: HIV-1 CA-NC fusion protein assembled into tube-like complexes (HIV-1); test: co-sedimentation; purified tag-free NUP153C or GST incubated with assembled HIV-1 CA-NC complexes, pelleted through a sucrose cushion; Coomassie stain
[2] = molecular target: his-tagged HIV-1 CAN Q63A/Q67A (HIV-1 (NL4-3)); test: pull-down; Ni-NTA beads, 20 µM his-tagged CA or CAN, 0.5 µM purified NUP153C, 25 mM Tris-HCl pH 8.0, 150 mM NaCl, 0.1% NP-40, 1 h room temperature; Coomassie or SYPRO Ruby stain
[3] = molecular target: full length his-tagged wild-type HIV-1 CA (HIV-1 (NL4-3)); test: as above
[4] = molecular target: HIV-1 CA-NC fusion protein assembled into tube-like complexes (HIV-1); test: co-sedimentation; competition: 4 µM purified WT or mutant NUP153C added to 0.8 µM assembled CA-NC and CPSF6-HA 293T extract; read-out is CPSF6 in the pellet
[5] = molecular target: T1, his-tagged HIV-1 CA N-terminal domain (CAN) (HIV-1 (NL4-3)), P12493; test: pull-down; Ni-NTA beads, 20 µM his-tagged CA or CAN, 0.5 µM purified NUP153C, 25 mM Tris-HCl pH 8.0, 150 mM NaCl, 0.1% NP-40, 1 h room temperature; Coomassie or SYPRO Ruby stain; details: remark: other sources report otherwise
[6] = molecular target: T1, his-tagged HIV-1 CA N-terminal domain …; test: pull-down; saturation curves: 3 µl Ni-NTA beads, 0.5 µM purified WT or mutant NUP153C, HIV-1 CAN from 2 µM to 200 µM in half-log steps, 150 mM NaCl, 25 mM Tris-HCl pH 8.0, 0.1% NP-40; percent bound by SYPRO Ruby; one-site saturation fit, Kd at half-maximal binding; details: remark: other sources report otherwise

In the case of “his-tagged HIV-1 integrase (IN) (enzyme)”, the percent of input pulled down (GST-NUP153C (human)) is reported as 0.85%.

With “recombinant tag-free NUP153C (residues 896–1475) (from UniProt P49790-1 896-1475) (domain or fragment)” the percent of input recovered in the pellet [1] was 40%, the fold decrease of binding against WT CAN [2] was 1.3 fold and the percent of input pulled down [3] was 30%. It also gave a fold decrease of CPSF6 binding to CA-NC with 4 µM NUP153C [4] of 7 fold.

his-tagged FIV integrase (IN) (enzyme) gave a percent of input pulled down (GST-NUP153C (human)) of 5.55%.

B1: recombinant tag-free NUP153C (residues 896–1475), P49790-1 896-1475 (domain or fragment)
chain: NSAASSSFKFGVSSSSSGPSQTLTSTGNFKFGDQGGFKIGVSSDSGSINPMSEGFKFSKPIGDFKFGVSSESKPEEVKKDSKNDNFKFGLSSGLSNPVSLTPFQFGVSNLGQEEKKEELPKSSSAGFSFGTGVINSTPAPANTIVTSENKSSFNLGTIETKSASVAPFTCKTSEAKKEEMPATKGGFSFGNVEPASLPSASVFVLGRTEEKQQEPVTSTSLVFGKKADNEEPKCQPVFSFGNSEQTKDENSSKSTFSFSMTKPSEKESEQPAKATFAFGAQTSTTADQGAAKPVFSFLNNSSSSSSTPATSAGGGIFGSSTSSSNPPVATFVFGQSSNPVSSSAFGNTAESSTSQSLLFSQDSKLATTSSTGTAVTPFVFGPGASSNNTTTSGFGFGATTTSSSAGSSFVFGTGPSAPSASPAFGANQTPTFGQSQGASQPNPPGFGSISSSTALFPTGSQPAPPTFGTVSSSSQPPVFGQQPSQSAFGSGTTPNSSSAFQFGSSTTNFNFTNNSPSGVFTFGANSSTPAASAQPSGSGGFPFNQSPAAFTVGSNGKNVFSSSGTSFSGRKIKTAVRRRK
B1 gave a percent of input pulled down [5] of 30% and a Kd [6] of 28.3 µM.

Reference: paper PMC3795039
